Experimental data published in PMC12784962, “https://orcid.org/0000-0002-3633-7823 Baral Joydeep Department of Bioscience and Biotechnology, Indian Institute of Technology Kharagpur, West Midnapore 721302, West Bengal, India”.

Biological target: the molecule itself
Experiment: cryo-EM structure; monomer to monomer within the homodimer; 5 µM mKu dimer with equimolar 40-bp linear dsDNA or short hairpin DNA, 30 min at 4°C

B1: mycobacterial Ku (mKu), Mycobacterium tuberculosis, wild type (natural protein)
chain: MRAIWTGSIAFGLVNVPVKVYSATADHDIRFHQVHAKDNGRIRYKRVCEACGEVVDYRDLARAYESGDGQMVAITDDDIASLPEERSREIEVLEFVPAADVDPMMFDRSYFLEPDSKSSKSYVLLAKTLAETDRMAIVHFTLRNKTRLAALRVKDFGKREVMMVHTLLWPDEIRDPDFPVLDQKVEIKPAELKMAGQVVDSMADDFNPDRYHDTYQEQLQELIDTKLEGGQAFTAEDQPRLLDEPEDVSDLLAKLEASVKARSKANSNVPTPP
notes: Ku protein of Mycobacterium tuberculosis, gene Rv0937c, 31 kDa; the C-terminal 46 residues are not seen in the maps; also called mKu WT; mKu-WT
binding result: binds
